Source: US20220380442A1 (published 2022)

T1: Puumala virus (PUUV) glycoproteins Gn and Gc displayed on Expi293F cells (full-length M segment, plasmid … (Puumala virus))
T1 chain 1: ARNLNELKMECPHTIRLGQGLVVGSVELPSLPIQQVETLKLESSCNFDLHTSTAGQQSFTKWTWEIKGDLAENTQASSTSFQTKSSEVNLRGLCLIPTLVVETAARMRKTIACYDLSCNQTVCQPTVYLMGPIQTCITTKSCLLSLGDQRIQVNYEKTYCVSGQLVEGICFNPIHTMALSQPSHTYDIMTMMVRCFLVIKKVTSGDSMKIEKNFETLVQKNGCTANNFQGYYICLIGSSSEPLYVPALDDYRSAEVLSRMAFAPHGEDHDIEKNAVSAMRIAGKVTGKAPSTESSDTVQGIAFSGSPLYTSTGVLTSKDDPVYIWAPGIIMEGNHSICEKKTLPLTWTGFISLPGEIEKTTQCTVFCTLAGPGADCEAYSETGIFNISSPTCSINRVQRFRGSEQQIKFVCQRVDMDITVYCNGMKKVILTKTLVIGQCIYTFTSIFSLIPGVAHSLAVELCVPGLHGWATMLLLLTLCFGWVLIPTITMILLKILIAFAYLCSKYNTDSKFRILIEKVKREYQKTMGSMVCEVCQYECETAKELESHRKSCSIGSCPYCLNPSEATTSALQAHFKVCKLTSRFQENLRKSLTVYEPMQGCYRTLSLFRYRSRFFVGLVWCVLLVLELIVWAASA
T1 chain 2: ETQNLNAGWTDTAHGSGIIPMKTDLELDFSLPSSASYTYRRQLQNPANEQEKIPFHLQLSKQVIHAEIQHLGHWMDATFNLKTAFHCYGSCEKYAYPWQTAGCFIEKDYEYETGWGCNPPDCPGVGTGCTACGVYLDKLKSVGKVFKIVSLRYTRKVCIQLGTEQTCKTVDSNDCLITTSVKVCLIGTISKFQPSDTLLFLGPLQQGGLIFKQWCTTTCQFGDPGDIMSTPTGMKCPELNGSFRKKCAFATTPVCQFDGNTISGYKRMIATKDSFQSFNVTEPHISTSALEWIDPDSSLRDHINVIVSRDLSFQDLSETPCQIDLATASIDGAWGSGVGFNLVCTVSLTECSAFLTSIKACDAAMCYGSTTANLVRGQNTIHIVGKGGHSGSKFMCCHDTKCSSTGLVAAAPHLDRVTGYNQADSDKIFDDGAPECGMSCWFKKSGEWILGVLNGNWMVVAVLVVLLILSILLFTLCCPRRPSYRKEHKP


Legend:
[1] = target: T1, Puumala virus (PUUV) glycoproteins Gn …; test: flow
[2] = target: Sin Nombre virus (SNV) glycoproteins Gn and Gc displayed on the surface of Expi293F cells transfected with … (Sin Nombre virus); test: flow

Binder	EC50 [1] [µg/mL]	EC50 [2] [µg/mL]
ANDV-5 (antibody, V domains shown) VH: QVQLLQSGAEVKKPGSSVRVSCQSSGDIYNYYGISWVRQAPGQGLEWMGGIIPVYGRPNYVQKFRGRVTFTVDKSTSTAYMELSTLRADDTAVYYCARDTARSHYFGSGNDYGMDVWGQGTTVIVSS VL: DIVMTQSPLSLPVTPGEPASISCRSSQSLLHSNGFNFVDWYLQKPGQSPQLLIYLGSTRASGVPDRFSGSGSGTDFTLEISRVEAEDVGVYYCMQALQFPRTFGQGTKLDIK	0.148	–
ANDV-2 (antibody, V domains shown) VH: QVTLKESGPALVKPTQTLTLTCTFSGFSLSTSGMRVSWIRQPPGKALEWLARIDWDDDKFYSTSLKTRLTISKDTSKNQVVLIMTNMDPVDTATYYCARMMVGEGTFDYWGQGTLVTVSS VL: DIQMTQFPSTLSASVGDRVTITCRASQDISSLLAWYQQKPGKAPKLLIYTASNLEGGVPSRFSGSGSGTEFTLTISSLQPDDFATYYCQQYIRYWTFGQGTKVEIK	–	0.011
ANDV-69 (antibody, V domains shown) VH: QVHLQESGPGLVKPSETLSLTCAVSGYSISSGYCWGWIRQTPGKGLEWIGSIWHTGTTYYNPSLKSRVTISLDTSKNQFSLKLSSLTAADTAVYYCARAIYDSSGYSPFSGLDIWGQGTTVTISS VL: QSVLTQPPSVSAAPGQKVTISCSGSSSNIGNNYVSWYQQVPGTAPKLLFYDNNKRPSGIPYRFSGSKSGTSATLAITGLQTGDEADYYCGTWDSSLNLWVFGGGTKLTVL	0.541	–
ANDV-59 (antibody, V domains shown) VH: QVVLQESGPGLVKPSETLSLTCTVSGGSINNYYWSWIRQPPGKGLEWIGWLYYSGITTFNPSLKSRVTISIDTSKNQVSLNLRSVTAADTAVYYCARVQGSDSSGYYHLKSDWFDPWGQGIPVTVSS VL: QSVLTQPPSVSAAPGQTVTISCSGSSSNIRHNFVSWYQQLPGTAPKLVIYENNKRPSGIPDRFSGSKSGTSATLGITGLQTGDEADYYCGTWDSSLSAPHWVFGGGTRLTVL	0.123	0.0093
